According to publication PMC6355003, “New interfaces on MiD51 for Drp1 recruitment and regulation” (PLoS ONE, 2019):

What was measured:
Details in all cases: both partners purified
Drp1 A395D = biological target: T1, Drp1 A395D (UniProt O00429-4 1-699, A395D); test: pull-down; GST-fused MiD51^133-463 or mutants on Glutathione Sepharose 4B, equal molar Drp1, 3 h at 4°C; 20 mM HEPES pH 7.5, 150 mM NaCl, 1% Triton X-100, 1 mM MgCl2; SDS-PAGE, Coomassie staining; no nucleotide
T1 construct: Drp1, GenBank NM_005690; source: E. coli Rosseta (DE3), purified (Ni-NTA, anion exchange, size-exclusion chromatography)

Drp1 A395D/AAAA = biological target: T2, Drp1 A395D/AAAA (UniProt O00429-4 1-699, A395D | 401GPRP404→AAAA); test: as above
T2 construct: Drp1, GenBank NM_005690; source: E. coli Rosseta (DE3), purified (Ni-NTA, anion exchange, size-exclusion chromatography)

Drp1 G350D = biological target: T3, Drp1 G350D (UniProt O00429-4 1-699, G350D); test: as above
T3 construct: Drp1, GenBank NM_005690; source: E. coli Rosseta (DE3), purified (Ni-NTA, anion exchange, size-exclusion chromatography)

Drp1 G350D/A395D = biological target: T4, Drp1 G350D/A395D (UniProt O00429-4 1-699, G350D | A395D); test: as above
T4 construct: Drp1, GenBank NM_005690; source: E. coli Rosseta (DE3), purified (Ni-NTA, anion exchange, size-exclusion chromatography)

Drp1 S579D = biological target: T5, Drp1 S579D (UniProt O00429-4 1-699, S579D); test: as above
T5 construct: Drp1, GenBank NM_005690; S579 is S616 in Drp1 isoform 1 (printed); also called phosphorylation site mutant (related to S616 in Drp1 isoform 1); source: E. coli Rosseta (DE3), purified (Ni-NTA, anion exchange, size-exclusion chromatography)

Drp1 S600D = biological target: T6, Drp1 S600D (UniProt O00429-4 1-699, S600D); test: as above
T6 construct: Drp1, GenBank NM_005690; S600 is S637 in Drp1 isoform 1 (printed); also called phosphorylation site mutant (related to S637 in Drp1 isoform 1); source: E. coli Rosseta (DE3), purified (Ni-NTA, anion exchange, size-exclusion chromatography)

Drp1 K38A = biological target: T7, Drp1 K38A (UniProt O00429-4 1-699, K38A); test: as above
T7 construct: Drp1, GenBank NM_005690; also called K38A mutant of Drp1; dominant-negative GTPase mutation K38A; source: E. coli Rosseta (DE3), purified (Ni-NTA, anion exchange, size-exclusion chromatography)

Drp1 G350D/AAAA = biological target: T8, Drp1 G350D/AAAA (UniProt O00429-4 1-699, G350D | 401GPRP404→AAAA); test: as above
T8 construct: Drp1, GenBank NM_005690; source: E. coli Rosseta (DE3), purified (Ni-NTA, anion exchange, size-exclusion chromatography)

[1] = biological target: T9, Drp1 (dynamin-related protein Drp1), wild type (UniProt O00429-4 1-699); test: pull-down; GST-MiD51^133-463 on Glutathione Sepharose; MiD51 and Drp1 mixed first, then no nucleotide (apo) or 1 mM GTP, GMP-PNP, GDP-AlFx or GDP in assay and wash buffer; 20 mM HEPES pH 7.5, 150 mM NaCl, 1% Triton X-100, 1 mM MgCl2; Coomassie staining
T9 construct: Drp1, GenBank NM_005690; also called wild-type Drp1; source: E. coli Rosseta (DE3), purified (Ni-NTA, anion exchange, size-exclusion chromatography)

[2] = biological target: T10, Drp1 AAAA mutant (401GPRP404→AAAA) (UniProt O00429-4 1-699, 401GPRP404→AAAA); test: as above
T10 construct: Drp1, GenBank NM_005690; source: E. coli Rosseta (DE3), purified (Ni-NTA, anion exchange, size-exclusion chromatography)

binding result (Drp1 A395D): binds | binding result (Drp1 A395D/AAAA): binds | binding result (Drp1 G350D): binds | binding result (Drp1 G350D/A395D): binds | binding result (Drp1 S579D): binds | binding result (Drp1 S600D): binds | binding result (Drp1 K38A): binds | binding result (Drp1 G350D/AAAA): binds | binding result [1]: binds | binding result [2]: binds
B1: GST-MiD51^133-463, wild type (domain or fragment, human, UniProt Q9NQG6-1 133-463, looked up)
chain: MSLQEKLLTYYRNRAAIPAGEQARAKQAAVDICAELRSFLRAKLPDMPLRDMYLSGSLYDDLQVVTADHIQLIVPLVLEQNLWSCIPGEDTIMNVPGFFLVRRENPEYFPRGSSYWDRCVVGGYLSPKTVADTFEKVVAGSINWPAIGSLLDYVIRPAPPPEALTLEVQYERDKHLFIDFLPSVTLGDTVLVAKPHRLAQYDNLWRLSLRPAETARLRALDQADSGCRSLCLKILKAICKSTPALGHLTASQLTNVILHLAQEEADWSPDMLADRFLQALRGLISYLEAGVLPSALNPKVNLFAELTPEEIDELGYTLYCSLSEPEVLLQT
notes: also called cytosolic domain of MiD51; source: E. coli BL21 (DE3), purified (Glutathione Sepharose, eluted with reduced glutathione)
